Measurements from PMC9482650, “Quantitative fragmentomics allow affinity mapping of interactomes” (Nature Communications, 2022).

T1: LIN7C, Q9NUP9
T1 sequence (Q9NUP9 88-185, limits assumed, looked up): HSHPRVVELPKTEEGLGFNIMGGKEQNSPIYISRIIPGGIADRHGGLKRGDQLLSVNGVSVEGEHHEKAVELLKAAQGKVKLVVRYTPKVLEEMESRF

T2: SNTB1, Q13884
T2 sequence (Q13884 107-205, limits assumed, looked up): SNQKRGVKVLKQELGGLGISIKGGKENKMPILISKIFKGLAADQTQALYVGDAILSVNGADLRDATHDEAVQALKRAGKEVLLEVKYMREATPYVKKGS

T3: SNTG2, Q9NY99
T3 sequence (Q9NY99 68-166, limits assumed, looked up): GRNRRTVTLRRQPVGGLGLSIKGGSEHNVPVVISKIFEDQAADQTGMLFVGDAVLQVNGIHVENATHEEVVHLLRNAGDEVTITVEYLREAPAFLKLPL

T4: TIAM2, Q8IVF5
T4 sequence (Q8IVF5 885-986, limits assumed, looked up): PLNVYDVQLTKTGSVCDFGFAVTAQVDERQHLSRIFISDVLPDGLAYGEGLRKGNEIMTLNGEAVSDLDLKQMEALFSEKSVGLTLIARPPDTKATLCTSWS

T5: PDZD2_2, O15018
T5 sequence (O15018 329-429, limits assumed, looked up): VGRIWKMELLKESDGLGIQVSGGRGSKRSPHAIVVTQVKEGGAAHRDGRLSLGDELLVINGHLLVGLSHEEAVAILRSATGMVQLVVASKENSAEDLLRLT

T6: PDZRN3_1, Q9UPQ7
T6 sequence (Q9UPQ7 244-349, limits assumed, looked up): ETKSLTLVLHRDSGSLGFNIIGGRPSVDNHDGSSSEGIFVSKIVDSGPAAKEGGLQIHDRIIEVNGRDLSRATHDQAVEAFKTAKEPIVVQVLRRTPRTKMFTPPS

T7: GRIP1_4, Q9Y3R0
T7 sequence (Q9Y3R0 467-571, limits assumed, looked up): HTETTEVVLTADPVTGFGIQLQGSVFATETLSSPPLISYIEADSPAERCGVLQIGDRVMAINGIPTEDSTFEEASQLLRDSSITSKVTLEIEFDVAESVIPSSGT

T8: ARHGEF11, O15085
T8 sequence (O15085 42-136, limits assumed, looked up): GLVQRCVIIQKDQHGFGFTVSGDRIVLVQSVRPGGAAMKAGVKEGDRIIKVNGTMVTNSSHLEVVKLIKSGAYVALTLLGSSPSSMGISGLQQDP

T9: LNX2_3, Q8N448
T9 sequence (Q8N448 463-564, limits assumed, looked up): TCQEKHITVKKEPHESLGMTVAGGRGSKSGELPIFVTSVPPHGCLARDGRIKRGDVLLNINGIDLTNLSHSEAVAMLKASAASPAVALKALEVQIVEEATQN

T10: NHERF3_4, Q5T2W1
T10 sequence (Q5T2W1 373-468, limits assumed, looked up): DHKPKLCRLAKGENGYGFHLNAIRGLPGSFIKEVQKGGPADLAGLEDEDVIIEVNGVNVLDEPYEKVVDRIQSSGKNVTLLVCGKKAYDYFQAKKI

T11: APBA3_1, O96018
T11 sequence (O96018 389-490, limits assumed, looked up): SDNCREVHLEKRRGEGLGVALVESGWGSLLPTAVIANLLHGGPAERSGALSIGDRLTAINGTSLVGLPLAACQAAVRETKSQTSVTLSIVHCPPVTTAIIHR

T12: HTRA4, P83105
T12 sequence (P83105 378-476, limits assumed, looked up): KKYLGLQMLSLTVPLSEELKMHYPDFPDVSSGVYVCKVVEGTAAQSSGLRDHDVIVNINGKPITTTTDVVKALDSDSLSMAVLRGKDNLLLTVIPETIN


Tests used:
Experiment in all cases: holdup assay
Set-up in all cases: key: below the threshold = too weak to quantify, mostly under pKd 3.1 to 4
Details in all cases: plain residues with an end cap or a label only (N-terminal biotin on a linker: ado-ado)
Inadl_6, Q8NI35 = target: Inadl_6, Q8NI35
DLG1_3, Q12959 = target: DLG1_3, Q12959
LIN7C, Q9NUP9 = target: T1, LIN7C, Q9NUP9
SNTB1, Q13884 = target: T2, SNTB1, Q13884
SCRIB_2, Q14160 = target: SCRIB_2, Q14160
SNTG2, Q9NY99 = target: T3, SNTG2, Q9NY99
TIAM2, Q8IVF5 = target: T4, TIAM2, Q8IVF5
PDZD2_2, O15018 = target: T5, PDZD2_2, O15018
PDZRN3_1, Q9UPQ7 = target: T6, PDZRN3_1, Q9UPQ7
FRMPD2_2, Q68DX3 = target: FRMPD2_2, Q68DX3
GRIP1_4, Q9Y3R0 = target: T7, GRIP1_4, Q9Y3R0
Inadl_3, Q8NI35 = target: Inadl_3, Q8NI35
MAGI2_4, Q86UL8 = target: MAGI2_4, Q86UL8
DLG2_2, Q15700 = target: DLG2_2, Q15700
LNX1_3, Q8TBB1 = target: LNX1_3, Q8TBB1
ARHGEF11, O15085 = target: T8, ARHGEF11, O15085
TJP1_3, Q07157 = target: TJP1_3, Q07157
IL16_4, Q14005 = target: IL16_4, Q14005
LNX1_2, Q8TBB1 = target: LNX1_2, Q8TBB1
LNX2_3, Q8N448 = target: T9, LNX2_3, Q8N448
LAP2, Q96RT1 = target: LAP2, Q96RT1
NHERF3_4, Q5T2W1 = target: T10, NHERF3_4, Q5T2W1
AHNAK1, Q09666 = target: AHNAK1, Q09666
APBA3_1, O96018 = target: T11, APBA3_1, O96018
HTRA4, P83105 = target: T12, HTRA4, P83105
SNX27, Q96L92 = target: SNX27, Q96L92

DLG2_2, Q15700, sequence (Q15700 189-283): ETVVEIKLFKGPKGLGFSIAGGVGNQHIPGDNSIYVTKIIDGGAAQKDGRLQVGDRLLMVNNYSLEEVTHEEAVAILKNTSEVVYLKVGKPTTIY
LNX1_3, Q8TBB1, sequence (Q8TBB1 500-596): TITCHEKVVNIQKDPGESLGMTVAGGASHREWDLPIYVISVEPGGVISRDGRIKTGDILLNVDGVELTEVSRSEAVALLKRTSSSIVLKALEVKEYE
AHNAK1, Q09666, sequence (Q09666 4-100): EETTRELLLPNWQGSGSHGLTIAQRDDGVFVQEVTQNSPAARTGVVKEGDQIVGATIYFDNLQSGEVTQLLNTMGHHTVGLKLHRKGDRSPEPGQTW
FRMPD2_2, Q68DX3, sequence (Q68DX3 944-1038): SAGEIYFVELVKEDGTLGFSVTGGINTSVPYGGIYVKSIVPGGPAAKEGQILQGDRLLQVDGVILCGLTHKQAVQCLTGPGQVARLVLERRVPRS
IL16_4, Q14005, sequence (Q14005 1229-1329): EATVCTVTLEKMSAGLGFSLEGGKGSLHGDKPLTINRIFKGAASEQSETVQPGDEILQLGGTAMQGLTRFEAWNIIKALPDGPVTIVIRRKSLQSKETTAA
Inadl_6, Q8NI35, sequence (Q8NI35 1058-1167): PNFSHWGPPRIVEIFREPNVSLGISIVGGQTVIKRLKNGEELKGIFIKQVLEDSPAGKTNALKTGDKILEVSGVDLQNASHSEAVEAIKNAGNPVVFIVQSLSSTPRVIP
TJP1_3, Q07157, sequence (Q07157 416-512): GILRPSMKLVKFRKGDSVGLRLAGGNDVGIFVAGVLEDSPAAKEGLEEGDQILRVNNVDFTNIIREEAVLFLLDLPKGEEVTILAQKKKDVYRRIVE
DLG1_3, Q12959, sequence (Q12959 457-571): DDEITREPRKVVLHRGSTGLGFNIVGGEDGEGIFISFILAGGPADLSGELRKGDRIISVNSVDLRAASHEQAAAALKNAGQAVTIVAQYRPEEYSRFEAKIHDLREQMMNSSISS
SCRIB_2, Q14160, sequence (Q14160 857-960): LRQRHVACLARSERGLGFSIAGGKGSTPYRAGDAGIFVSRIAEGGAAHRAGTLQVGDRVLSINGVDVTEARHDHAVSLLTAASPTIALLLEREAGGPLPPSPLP
LNX1_2, Q8TBB1, sequence (Q8TBB1 371-470): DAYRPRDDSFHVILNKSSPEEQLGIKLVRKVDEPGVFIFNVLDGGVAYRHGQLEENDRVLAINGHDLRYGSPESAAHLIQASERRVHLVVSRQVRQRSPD
LAP2, Q96RT1, sequence (Q96RT1 other isoform, or with tags, fused parts or gaps): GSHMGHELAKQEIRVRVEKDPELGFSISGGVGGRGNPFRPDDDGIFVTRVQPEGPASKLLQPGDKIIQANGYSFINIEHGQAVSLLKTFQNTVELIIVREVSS
MAGI2_4, Q86UL8, sequence (Q86UL8 772-865): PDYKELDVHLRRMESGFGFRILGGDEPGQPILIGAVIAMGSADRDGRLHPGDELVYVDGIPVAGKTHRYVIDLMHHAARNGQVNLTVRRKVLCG
Inadl_3, Q8NI35, sequence (Q8NI35 359-469): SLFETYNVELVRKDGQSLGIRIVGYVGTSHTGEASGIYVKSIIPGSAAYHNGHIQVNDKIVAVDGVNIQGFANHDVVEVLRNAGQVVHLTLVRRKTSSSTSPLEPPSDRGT

| pKd (Inadl_6, Q8NI35) | pKd (DLG1_3, Q12959) | pKd (LIN7C, Q9NUP9) | pKd (SNTB1, Q13884) | pKd (SCRIB_2, Q14160) | pKd (SNTG2, Q9NY99) | pKd (TIAM2, Q8IVF5) | pKd (PDZD2_2, O15018) | pKd (PDZRN3_1, Q9UPQ7) | pKd (FRMPD2_2, Q68DX3) | pKd (GRIP1_4, Q9Y3R0) | pKd (Inadl_3, Q8NI35) | pKd (MAGI2_4, Q86UL8) | pKd (DLG2_2, Q15700) | pKd (LNX1_3, Q8TBB1) | pKd (ARHGEF11, O15085) | pKd (TJP1_3, Q07157) | pKd (IL16_4, Q14005) | pKd (LNX1_2, Q8TBB1) | pKd (LNX2_3, Q8N448) | Binder | also measured |
| --- | --- | --- | --- | --- | --- | --- | --- | --- | --- | --- | --- | --- | --- | --- | --- | --- | --- | --- | --- | --- | --- |
| below the threshold | below the threshold | 3.95 | below the threshold | below the threshold | below the threshold | below the threshold | below the threshold | below the threshold | below the threshold | below the threshold | below the threshold | below the threshold | below the threshold | below the threshold | below the threshold | below the threshold | below the threshold | below the threshold | below the threshold | FVFESRKEIL [TBPL1, P62380] | pKd (LAP2, Q96RT1): below the threshold; pKd (NHERF3_4, Q5T2W1): below the threshold; pKd (AHNAK1, Q09666): below the threshold; pKd (APBA3_1, O96018): below the threshold; pKd (HTRA4, P83105): below the threshold; pKd (SNX27, Q96L92): below the threshold |
| below the threshold | below the threshold | below the threshold | below the threshold | below the threshold | below the threshold | 4.04 | below the threshold | below the threshold | below the threshold | below the threshold | below the threshold | below the threshold | below the threshold | below the threshold | below the threshold | below the threshold | below the threshold | below the threshold | below the threshold | KPDKQEEFYA [SDC3, O75056] | pKd (LAP2, Q96RT1): below the threshold; pKd (NHERF3_4, Q5T2W1): below the threshold; pKd (AHNAK1, Q09666): below the threshold; pKd (APBA3_1, O96018): below the threshold; pKd (HTRA4, P83105): below the threshold; pKd (SNX27, Q96L92): below the threshold |

Continued, binder first:

| Binder | pKd (Inadl_6, Q8NI35) | pKd (DLG1_3, Q12959) | pKd (LIN7C, Q9NUP9) | pKd (SNTB1, Q13884) | pKd (SCRIB_2, Q14160) | pKd (SNTG2, Q9NY99) | pKd (TIAM2, Q8IVF5) | pKd (PDZD2_2, O15018) | pKd (PDZRN3_1, Q9UPQ7) | pKd (FRMPD2_2, Q68DX3) | pKd (GRIP1_4, Q9Y3R0) | pKd (Inadl_3, Q8NI35) | pKd (MAGI2_4, Q86UL8) | pKd (DLG2_2, Q15700) | pKd (LNX1_3, Q8TBB1) | pKd (ARHGEF11, O15085) | pKd (TJP1_3, Q07157) | pKd (IL16_4, Q14005) | pKd (LNX1_2, Q8TBB1) | pKd (LNX2_3, Q8N448) | also measured |
| --- | --- | --- | --- | --- | --- | --- | --- | --- | --- | --- | --- | --- | --- | --- | --- | --- | --- | --- | --- | --- | --- |
| DSEEELPTRL [GRK6, P43250] | below the threshold | 3.73 | below the threshold | below the threshold | below the threshold | 3.57 | below the threshold | 3.71 | below the threshold | below the threshold | below the threshold | below the threshold | 3.47 | below the threshold | below the threshold | 3.78 | below the threshold | below the threshold | below the threshold | below the threshold | pKd (LAP2, Q96RT1): below the threshold; pKd (NHERF3_4, Q5T2W1): 3.79; pKd (AHNAK1, Q09666): below the threshold; pKd (APBA3_1, O96018): below the threshold; pKd (HTRA4, P83105): 3.92; pKd (SNX27, Q96L92): 3.85 |
| RDYTQSSSSL [GRM5, P41594] | below the threshold | below the threshold | below the threshold | below the threshold | below the threshold | below the threshold | 3.8 | 3.83 | 3.56 | below the threshold | below the threshold | below the threshold | below the threshold | below the threshold | below the threshold | 3.79 | below the threshold | below the threshold | below the threshold | below the threshold | pKd (LAP2, Q96RT1): below the threshold; pKd (NHERF3_4, Q5T2W1): 3.64; pKd (AHNAK1, Q09666): below the threshold; pKd (APBA3_1, O96018): below the threshold; pKd (HTRA4, P83105): 3.85; pKd (SNX27, Q96L92): 4.25 |
